Experimental data reported in paper PMC3103402.

Each binder was assayed against CBF-A (hnRNP A/B), p37 isoform (UniProt Q99020 1-285) (assay: EMSA).
Chain of CBF-A (hnRNP A/B), p37 isoform (Q99020 whole entry, canonical isoform): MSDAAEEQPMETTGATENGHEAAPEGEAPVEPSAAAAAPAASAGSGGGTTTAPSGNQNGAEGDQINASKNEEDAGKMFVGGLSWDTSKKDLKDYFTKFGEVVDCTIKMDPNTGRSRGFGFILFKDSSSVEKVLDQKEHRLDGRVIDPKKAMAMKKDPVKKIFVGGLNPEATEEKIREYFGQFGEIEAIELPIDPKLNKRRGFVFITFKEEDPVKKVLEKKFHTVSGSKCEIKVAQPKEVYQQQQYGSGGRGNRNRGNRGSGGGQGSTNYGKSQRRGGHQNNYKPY
GCUGAGGAGGAGGAGAUCAUU (ssRNA) [Arc wtRTS]: binds.
AACGCCAGUGAGCCAGGAACU (ssRNA) [CaMKIIα wtRTS]: binds.
AUGGACCCAAUGAGAACUAGU (ssRNA) [BDNF wtRTS]: binds.
